Assay results as given in patent publication US20120172298A1, “GLP-1 AND FGF21 COMBINATIONS FOR TREATMENT OF DIABETES TYPE 2” (Novo Nordisk A/S, priority 2009, published 2012).

Test system: rat insulinoma beta-cells (INS-1)
Assay: Insulin accumulated in the medium of INS-1 cells during 48 hour incubation with FFA
Format: cell-based
Details: for Insulin accumulated in the medium: 48 hours, FGF21 compound = F1 50 nM, GLP-1 compound = G1 50 nM, mean +/- SEM
Description: This ex vivo example investigates the influence of FGF21 and GLP-1 compounds on FFA (free fatty acid) induced apoptosis of rat insulinoma beta-cells (INS-1).
Compound F1 (Prospec, cat. no. CYT-474) was used as the FGF21 compound, and compound G1 was used as the GLP-1 compound.
INS-1 cells were seeded in 96-well plates (50000 cells/well) and incubated overnight in cell medium (RPMI 1640 medium (Gibco, cat. no. 61870-010), supplemented with 10% FCS (Gibco, cat. no. 10085-140), 1% Pen/Strep (Gibco, cat. no. 15140-114) and 0.5 ml beta-mercaptoethanol (Gibco, cat. no. 31350-010 (50 mM)). The FGF21 compound (50 nM) and the GLP-1 compound (50 nM) were added to the cells 1 hour before the cells were to be exposed to FFA. The FFA's were prepared as follows: Stock solutions of palmitic acid (Sigma P5585) and oleic acid (Sigma 01383) of 1M in DMSO were mixed 1:2 and heated to 60 degree Celsius. The FFA mix was then diluted 10 times in 0.1M NaOH. This mixture was then further diluted in cell medium to yield a FFA concentration of 1 mM. The FFAs were then added to the cells to a final concentration of 0.35 mM. The cells were incubated for 48 hours and then the following three assays were performed: 1) Cell viability was assessed using the CellTiter 96® Non-radioactive Cell Proliferation Assay (MTT) from Promega, performed according to the manufacturer's instruction (absorbance at 550 nm, A550); 2) Apoptosis was assessed using the Apo-ONE® Homogeneous Caspase-3/7 Assay from Promega, performed according to the manufacturer's instruction (fluorescence); and 3) Insulin accumulated in the medium during the 48 hour incubation with FFA was analysed (as described in Example 3; ng/ml insulin).
The results of 1), 2) and 3) are shown in Tables 4, 5, and 6 below, respectively, all figures being mean+/−standard error of mean (SEM). […]

B1: Met-FGF21_human (protein, listed as Homo sapiens)
chain: HPIPDSSPLLQFGGQVRQRYLYTDDAQQTEAHLEIREDGTVGGAADQSPESLLQLKALKPGVIQILGVKTSRFLCQRPDGALYGSLHFDPEACSFRELLLEDGYNVYQSEAHGLPLHLPGNKSPHRDPAPRGPARFLPLPGLPPALPEPPGILAPQPPDVGSSDPLSMVGPSQGRSPSYAS
modifications: N-terminal Met; mat_peptide (1)..(181); DISULFID (75)..(93)
**Q.** Which results are given for B1?
**A.** Insulin accumulated in the medium (FFA 0.00 mM): 1011 ± 112 ng/mL; Insulin accumulated in the medium (FFA 0.35 mM): 569 ± 14 ng/mL; stimulation of insulin release (absence of free fatty acids, F1 50 nM): does not stimulate insulin release
